For experiment [1], the target named is Butyrophilin Subfamily 2 Member A1 (BTN2A1) (human) (UniProt Q7KYR7). Description: cell-based or functional assay.
Experiment [2] has as its target BTN2A1; BTN3A1; BTN3A2/A3 peptide on (human). As to the kind of experiment: luciferase killing assay, 20 h; T cells + luciferase target cells (5:1) + purified GAB + 30 µM pamidronate; fusion: anti-CD3 scFv (GAB).
The target in the next experiment is BTN3A1/A2/A3. As to the kind of experiment: cell-based or functional assay.
Experiment [3] addresses BTN2A1; BTN3A1; BTN3A2/A3 peptide on (human). Description: luciferase killing assay, 20 h; T cells + three luciferase tumour cell lines (10:1) + purified GAB + 30 µM pamidronate; fusion: anti-CD3 scFv (GAB).

Substitutions are numbered along the chain they refer to. Numbers in names are those of the source.

Sequence of UniProt Q7KYR7 (Q7KYR7 29-527): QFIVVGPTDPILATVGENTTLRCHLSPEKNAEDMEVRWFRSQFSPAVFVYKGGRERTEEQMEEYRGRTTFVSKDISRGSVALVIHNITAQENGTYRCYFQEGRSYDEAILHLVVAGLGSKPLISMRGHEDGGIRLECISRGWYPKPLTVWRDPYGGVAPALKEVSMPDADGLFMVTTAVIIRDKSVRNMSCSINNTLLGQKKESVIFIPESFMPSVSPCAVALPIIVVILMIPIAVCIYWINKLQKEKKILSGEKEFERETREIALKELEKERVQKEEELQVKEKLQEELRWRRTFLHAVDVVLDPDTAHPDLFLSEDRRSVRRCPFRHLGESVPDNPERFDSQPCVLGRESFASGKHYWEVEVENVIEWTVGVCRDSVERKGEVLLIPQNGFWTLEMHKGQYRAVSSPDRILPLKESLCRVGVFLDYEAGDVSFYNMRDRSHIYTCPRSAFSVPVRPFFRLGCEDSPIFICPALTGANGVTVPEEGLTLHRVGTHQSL

B1: Vγ9Vδ2TCR MNP2γE22W (TCR, part only; not given: rest of gamma chain, delta chain, part only)
TCR gamma, part: AGHLEQPQISSTKTLSKTARLWCVVSGITISATSVYWYRERPGEVIQFLVSISYDGTVRKESGIPSGKFEVDRIPETSTSTLTIHNVEKQDIATYYCALWE
In the case of B1, the killing of luciferase transduced RPMI8226 cells by TCR-transduced αβT cells (MNP2 wt killed around 60%) in experiment [1] was more than 90%.

B2: GAB-AJ8s-Vγ9 mutation T83L (TCR, part only; not given: CDR3 delta, constant parts, anti-CD3 scFv, part only)
TCR gamma, part: B1 TCR gamma, part with W22E, R73Y, T83L
TCR delta, part: AIELVPEHQTVPVSIGVPATLRCSMKGEAIGNYYINWYRKTQGNTMTFIYREKDIYGPGFKDNFQGDIDIAKNLAVLKILAPSERDEGSYYCACDT
In turn, B2 gave an IFNγ production relative to GAB-AJ8s (GAB expression media, MZ1851RC, 30 µM pamidronate) in experiment [1] of 2 fold.

B3: GAB-AJ8sγT81W (TCR, part only; not given: CDR3 delta, constant parts, anti-CD3 scFv, part only)
TCR gamma, part: B1 TCR gamma, part with W22E, R73Y, T81W
TCR delta, part: B2 TCR delta, part
As for B3, in experiment [1], the IFNγ production relative to GAB-AJ8s (GAB expression media, MZ1851RC, 30 µM pamidronate) was found to be 2 fold and the fold difference in EC50 of tumor cell killing against GAB-AJ8s was determined as 2.8 fold. The mean fold difference in EC50 of GAB against GAB-AJ8s in experiment [2] came to 2.8 fold.

B4: GAB-AJ8sγE22WδG31V (TCR, part only; not given: CDR3 delta, constant parts, anti-CD3 scFv, part only)
TCR gamma, part: B1 TCR gamma, part with R73Y
TCR delta, part: B2 TCR delta, part with G31V
Take B4: in the experiment with BTN3A1/A2/A3, the IFNγ release, potency against the single mutants (combined Vγ9 and Vδ2 mutations; RPMI8226 and SCC9) was 10 fold; the T cell mediated killing of RPMI8226 and SCC9, potency against GAB-AJ8s was more than 100 fold; the T cell mediated killing of RPMI8226 and SCC9, potency against the single Vγ9 or Vδ2 mutants is more than 10 fold. For the same molecule, in experiment [1], the IFNγ release, potency against the single mutants (combined Vγ9 and Vδ2 mutations; RPMI8226 and SCC9) is 10 fold; the T cell mediated killing of RPMI8226 and SCC9, potency against GAB-AJ8s is more than 100 fold; the T cell mediated killing of RPMI8226 and SCC9, potency against the single Vγ9 or Vδ2 mutants was more than 10 fold.

B5: GAB-AJ8sγE22WδK53S (TCR, part only; not given: CDR3 delta, constant parts, anti-CD3 scFv, part only)
TCR gamma, part: B1 TCR gamma, part with R73Y
TCR delta, part: B2 TCR delta, part with K53S
B5: in the experiment with BTN3A1/A2/A3, the IFNγ release, potency against the single mutants (combined Vγ9 and Vδ2 mutations; RPMI8226 and SCC9) turned out to be 10 fold; the T cell mediated killing of RPMI8226 and SCC9, potency against GAB-AJ8s is more than 100 fold; the T cell mediated killing of RPMI8226 and SCC9, potency against the single Vγ9 or Vδ2 mutants was more than 10 fold. Besides, in experiment [1], the IFNγ release, potency against the single mutants (combined Vγ9 and Vδ2 mutations; RPMI8226 and SCC9) worked out at 10 fold; the T cell mediated killing of RPMI8226 and SCC9, potency against GAB-AJ8s was more than 100 fold; the T cell mediated killing of RPMI8226 and SCC9, potency against the single Vγ9 or Vδ2 mutants was more than 10 fold.

B6: GAB-AJ8sγE22W (TCR, part only; not given: CDR3 delta, constant parts, anti-CD3 scFv, part only)
TCR gamma, part: B1 TCR gamma, part with R73Y
TCR delta, part: B2 TCR delta, part
In experiment [1], B6 gave an IFNγ release after 20 hours of coculture, potency against GAB-AJ8s of 10 fold; an IFNγ release relative to GAB-AJ8s (GAB expression media, T cells with MZ1851RC or SCC9, 30 µM pamidronate) of 5.6 fold; a T cell mediated tumor cell killing (luciferase), activity against GAB-AJ8s of more than 10 fold; a fold difference in EC50 of tumor cell killing between GAB-AJ8s and GAB-AJ8γE22W of 15.5 fold. In experiment [3], the mean fold difference in EC50 of GAB against GAB-AJ8s stood at 15.5 fold.

B7: GAB-AJ8sδK53S (TCR, part only; not given: CDR3 delta, constant parts, anti-CD3 scFv, part only)
TCR gamma, part: B1 TCR gamma, part with W22E, R73Y
TCR delta, part: B2 TCR delta, part with K53S
Molecule B7 showed an IFNγ release after 20 hours of coculture, potency against GAB-AJ8s with BTN3A1/A2/A3 of 10 fold.

B8: GAB-AJ8sδG31V (TCR, part only; not given: CDR3 delta, constant parts, anti-CD3 scFv, part only)
TCR gamma, part: B1 TCR gamma, part with W22E, R73Y
TCR delta, part: B2 TCR delta, part with G31V
For the molecule B8, the IFNγ release after 20 hours of coculture, potency against GAB-AJ8s in the experiment with BTN3A1/A2/A3 was found to be 10 fold.

B9: GAB-AJ8sγT81H (TCR, part only; not given: CDR3 delta, constant parts, anti-CD3 scFv, part only)
TCR gamma, part: B1 TCR gamma, part with R73Y
TCR delta, part: B2 TCR delta, part
B9: in experiment [1], the IFNγ production relative to GAB-AJ8s (GAB expression media, MZ1851RC, 30 µM pamidronate) came out at 4.2 fold and the fold difference in EC50 of tumor cell killing against GAB-AJ8s came to 2.4 fold. In experiment [2], the mean fold difference in EC50 of GAB against GAB-AJ8s was determined as 2.4 fold.

B10: GAB-AJ8s-Vγ9 mutation T81I (TCR, part only; not given: CDR3 delta, constant parts, anti-CD3 scFv, part only)
TCR gamma, part: B1 TCR gamma, part with W22E, R73Y, T81I
TCR delta, part: B2 TCR delta, part
Molecule B10 came in with an IFNγ production relative to GAB-AJ8s (GAB expression media, MZ1851RC, 30 µM pamidronate) in experiment [1] of 2 fold.

B11: GAB-AJ8sγT83I (TCR, part only; not given: CDR3 delta, constant parts, anti-CD3 scFv, part only)
TCR gamma, part: B1 TCR gamma, part with W22E, R73Y, T83I
TCR delta, part: B2 TCR delta, part
In experiment [1], B11 registered an IFNγ production relative to GAB-AJ8s (GAB expression media, MZ1851RC, 30 µM pamidronate) of 8.8 fold.

(Values after patent publication US20260042836A1.)
